B1: RI-A-CooP (peptide)
peptide: [dA][dV]G[dL]G[dS][dL]G[dC][dA]-NH2
modifications: N-terminus assumed
SMILES: CC(C)C[C@@H](NC(=O)CNC(=O)[C@H](NC(=O)[C@@H](C)N)C(C)C)C(=O)NCC(=O)N[C@H](CO)C(=O)N[C@H](CC(C)C)C(=O)NCC(=O)N[C@H](CS)C(=O)N[C@H](C)C(N)=O

This passage reports Kd results from paper PMC7409020 (2020).

Square brackets hold non-standard residues; d marks the D form. Ends that are not written are not given here.

Chain of recombinant N-terminal His6-tagged human FABP3 (human, NT-650-NHS red amine-reactive fluorescent dye (in the MST experiments only)) (P05413 whole entry): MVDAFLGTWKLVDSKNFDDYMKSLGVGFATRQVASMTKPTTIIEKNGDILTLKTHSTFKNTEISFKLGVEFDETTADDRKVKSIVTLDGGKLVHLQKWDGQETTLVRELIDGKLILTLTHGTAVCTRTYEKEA

The assay concerns the target recombinant N-terminal His6-tagged human FABP3 (human, NT-650-NHS red amine-reactive fluorescent dye (in the MST experiments only)). Put plainly: MST.
In the case of ACGLSGAGVA-NH2 [A-[Ala^6]CooP], the Kd (usually the constant that tells how readily two partners part at equilibrium) amounted to 190 nM.
Take ACGASGLGVA-NH2 [A-[Ala^3]CooP]: the Kd came out at 250 nM.
For B1 the value was 24000 nM; for ACGLAGLGVA-NH2 [A-[Ala^4]CooP], 110 nM; for ACGLSGLGAA-NH2 [A-[Ala^8]CooP], 120 nM.
For ACALSGLGVA-NH2 [A-[Ala^2]CooP] the value was 90 nM.
